# According to the supplement of paper PMC6757056:
# ± gives the standard deviation of the averaged measurements.
# B1: library; a variant is named by its letters at N, in order (parent)
# chain: GCUGUCACCGAGAAACUGUGAAGUAUAUCUUAAACCUGGGCACUUAAAAGAUAUAUGGAGUUAGUAGUGCAACCUGCUCGGUCUGAUGAGUCCNNNNNNGGACGAAACAGC
# What was measured:
# cyclic di-GMP [1] = variants of: B1; assay: normalized RNA/DNA level without ligand (relative to sTRSVctl = 100) (log10 (% of sTRSVctl)); HEK293T; ligand: cyclic di-GMP (c-di-GMP-II aptamer); higher = less ribozyme self-cleavage, higher mRNA level; details: reporter: mCherry (pCS4076), ligand present: no
# Outline: (§1)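 For each 6-well well, 4 µg of library plasmid encoding mCherry-linked ribozyme switches, or eGFP-linked ones in some ligand experiments, was transfected into HEK293T. Any ligand was added 1 h before transfection, and RNA was extracted with EDTA 72 h after it, then reverse-transcribed, amplified, barcoded and sequenced. RNA level was obtained by dividing RNA reads by DNA reads, normalizing to a spiked-in non-cleaving sequence or to the top sequences, then scaling and log-transforming. The top set was 25 sequences, scaling was ×100 with log10, and ≥100 DNA reads were required.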
# cyclic di-GMP [2] = variants of: B1; assay: normalized RNA/DNA level with ligand (relative to sTRSVctl = 100) (log10 (% of sTRSVctl)); HEK293T; ligand: cyclic di-GMP (c-di-GMP-II aptamer); ligand concentration (+) RNA-Seq: 1 mM; higher = less ribozyme self-cleavage, higher mRNA level; details: reporter: mCherry (pCS4076), ligand present: yes
# Outline: as §1
Variant,normalized RNA/DNA level without ligand (log10) (cyclic di-GMP [1]),normalized RNA/DNA level with ligand (log10) (cyclic di-GMP [2])
GCUGUCACCGAGAAACUGUGAAGUAUAUCUUAAACCUGGGCACUUAAAAGAUAUAUGGAGUUAGUAGUGCAACCUGCUCGGUCUGAUGAGUCCCCAUCAGGACGAAACAGC [CCAUCA],1.66 ± 0.052,1.77 ± 0.12
GCUGUCACCGAGAAACUGUGAAGUAUAUCUUAAACCUGGGCACUUAAAAGAUAUAUGGAGUUAGUAGUGCAACCUGCUCGGUCUGAUGAGUCCGAGUAUGGACGAAACAGC [GAGUAU],1.79 ± 0.024,1.86 ± 0.099
GCUGUCACCGAGAAACUGUGAAGUAUAUCUUAAACCUGGGCACUUAAAAGAUAUAUGGAGUUAGUAGUGCAACCUGCUCGGUCUGAUGAGUCCGGGUAUGGACGAAACAGC [GGGUAU],1.75 ± 0.041,1.9 ± 0.23
GCUGUCACCGAGAAACUGUGAAGUAUAUCUUAAACCUGGGCACUUAAAAGAUAUAUGGAGUUAGUAGUGCAACCUGCUCGGUCUGAUGAGUCCGGUGGCGGACGAAACAGC [GGUGGC],1.68 ± 0.03,1.83 ± 0.076
GCUGUCACCGAGAAACUGUGAAGUAUAUCUUAAACCUGGGCACUUAAAAGAUAUAUGGAGUUAGUAGUGCAACCUGCUCGGUCUGAUGAGUCCAGUUCAGGACGAAACAGC [AGUUCA],1.62 ± 0.051,1.8 ± 0.061
GCUGUCACCGAGAAACUGUGAAGUAUAUCUUAAACCUGGGCACUUAAAAGAUAUAUGGAGUUAGUAGUGCAACCUGCUCGGUCUGAUGAGUCCCCCUUAGGACGAAACAGC [CCCUUA],1.47 ± 0.04,1.7 ± 0.15
GCUGUCACCGAGAAACUGUGAAGUAUAUCUUAAACCUGGGCACUUAAAAGAUAUAUGGAGUUAGUAGUGCAACCUGCUCGGUCUGAUGAGUCCCACCAUGGACGAAACAGC [CACCAU],1.593 ± 0.0031,1.75 ± 0.11
GCUGUCACCGAGAAACUGUGAAGUAUAUCUUAAACCUGGGCACUUAAAAGAUAUAUGGAGUUAGUAGUGCAACCUGCUCGGUCUGAUGAGUCCUCACCGGGACGAAACAGC [UCACCG],1.75 ± 0.024,1.89 ± 0.12
GCUGUCACCGAGAAACUGUGAAGUAUAUCUUAAACCUGGGCACUUAAAAGAUAUAUGGAGUUAGUAGUGCAACCUGCUCGGUCUGAUGAGUCCGUGUGAGGACGAAACAGC [GUGUGA],1.41 ± 0.11,1.67 ± 0.084
GCUGUCACCGAGAAACUGUGAAGUAUAUCUUAAACCUGGGCACUUAAAAGAUAUAUGGAGUUAGUAGUGCAACCUGCUCGGUCUGAUGAGUCCUGGUACGGACGAAACAGC [UGGUAC],1.684 ± 0.015,1.83 ± 0.092
GCUGUCACCGAGAAACUGUGAAGUAUAUCUUAAACCUGGGCACUUAAAAGAUAUAUGGAGUUAGUAGUGCAACCUGCUCGGUCUGAUGAGUCCCAUUCAGGACGAAACAGC [CAUUCA],1.38 ± 0.087,1.56 ± 0.12
GCUGUCACCGAGAAACUGUGAAGUAUAUCUUAAACCUGGGCACUUAAAAGAUAUAUGGAGUUAGUAGUGCAACCUGCUCGGUCUGAUGAGUCCAUCGUCGGACGAAACAGC [AUCGUC],1.85 ± 0.056,1.92 ± 0.092
GCUGUCACCGAGAAACUGUGAAGUAUAUCUUAAACCUGGGCACUUAAAAGAUAUAUGGAGUUAGUAGUGCAACCUGCUCGGUCUGAUGAGUCCCCACAGGGACGAAACAGC [CCACAG],1.54 ± 0.028,1.75 ± 0.18
